The source of these data is patent US20240247080A1, “GLP1/GIP/NPY2 RECEPTOR TRIPLE AGONISTS” (Boehringer Ingelheim International GmbH, priority 2022, published 2024).

Starred links: 1 amine or outer side, 2 acyl side, 3 side chain; linkers in the order of their positions; H or OH if unused. Non-standard residues stand in square brackets, D forms with d. Groups on a side chain read outwards from the residue. No end group written: not given here. *: point of attachment. C20 diacid = O=C(O)CCCCCCCCCCCCCCCCCCC(=O)*; C18 diacid = O=C(O)CCCCCCCCCCCCCCCCC(=O)*; γGlu = O=C(O)[C@H](CCC(=O)[*:2])N[*:1]; εLys = N[C@@H](CCCCN[*:1])C(=O)[*:2]; AEEA = NCCOCCOCC(=O)O; Aib = CC(C)(N)C(=O)O

What all share (assay): cell-based or functional assay
Experiment [1] addresses T1, human neuropeptide Y2 (NPY2) receptor (human, UniProt P49146 1-381).
T1 sequence (looked up): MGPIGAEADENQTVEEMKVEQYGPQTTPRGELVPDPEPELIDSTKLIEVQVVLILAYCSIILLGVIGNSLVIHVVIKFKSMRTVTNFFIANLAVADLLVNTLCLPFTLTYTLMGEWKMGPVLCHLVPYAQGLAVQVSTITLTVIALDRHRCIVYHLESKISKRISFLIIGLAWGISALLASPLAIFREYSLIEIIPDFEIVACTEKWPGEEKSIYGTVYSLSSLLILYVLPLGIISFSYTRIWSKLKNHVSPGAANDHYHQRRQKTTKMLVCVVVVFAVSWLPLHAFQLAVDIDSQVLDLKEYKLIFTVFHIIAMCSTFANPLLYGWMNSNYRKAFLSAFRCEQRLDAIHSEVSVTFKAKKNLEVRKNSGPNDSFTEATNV

For another experiment, the target named is T2, human GIP receptor (human, UniProt P48546 22-466).
T2 sequence (looked up): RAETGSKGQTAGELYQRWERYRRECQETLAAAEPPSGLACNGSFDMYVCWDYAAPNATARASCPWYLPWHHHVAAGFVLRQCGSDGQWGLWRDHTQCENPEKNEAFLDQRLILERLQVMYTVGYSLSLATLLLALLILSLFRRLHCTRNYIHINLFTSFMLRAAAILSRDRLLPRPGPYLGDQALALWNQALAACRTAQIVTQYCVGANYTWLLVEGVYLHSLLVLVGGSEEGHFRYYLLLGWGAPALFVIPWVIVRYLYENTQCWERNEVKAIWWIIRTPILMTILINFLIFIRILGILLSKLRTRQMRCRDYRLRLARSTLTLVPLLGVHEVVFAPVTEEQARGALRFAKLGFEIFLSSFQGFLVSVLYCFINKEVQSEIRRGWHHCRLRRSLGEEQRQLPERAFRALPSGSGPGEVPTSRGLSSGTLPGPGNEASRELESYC

In the next experiment the target is human GLP-1 receptor (human, UniProt P43220 24-463).

For Y[Aib]EGTFTSDYSI[Aib]LEKQAQ[Aib]AFVQWLIK([εLys-γGlu-γGlu-γGlu-γGlu-γGlu-C18 diacid])GGPESGASLRHYYNWLTRQRY-NH2 (also: TFA salt) [Compound 60], the results for the “EC50, CreLuc assay, 0.5% hP” value (in experiment [1]; with human GIP receptor; with human GLP-1 receptor) were 7.43 nM, 0.33 nM and 0.08 nM, respectively. Further, the “EC50, CreLuc assay, 100% hP” value was determined as 23.1 nM in experiment [1], 0.35 nM with human GIP receptor and 1.69 nM with human GLP-1 receptor.
With Y[Aib]EGTFTSDYSI[Aib]LEKQAQ[Aib]AFVQWLIK([εLys-γGlu-γGlu-γGlu-γGlu-γGlu-C20 diacid])GGPESGASLRHYYNWLTRQRY-NH2 (also: TFA salt) [Compound 61], the “EC50, CreLuc assay, 0.5% hP” value in experiment [1] amounted to 6.25 nM; with human GIP receptor, 0.36 nM; with human GLP-1 receptor, 0.11 nM. Further, the “EC50, CreLuc assay, 100% hP” value worked out at 37.6 nM in experiment [1], 0.56 nM with human GIP receptor and 3.95 nM in the experiment with human GLP-1 receptor.
In the case of Y[Aib]EGTFTSDYSI[Aib]LEKQAQ[Aib]AFVQWLIKGGPESGASLRHYYNWLTRQRY-NH2 (not fully specified (residue 28); also: TFA salt) [Compound 55], the figures for the “EC50, CreLuc assay, 0.5% hP” value (in experiment [1]; with human GIP receptor; with human GLP-1 receptor) were 16 nM, 0.12 nM and 0.09 nM, respectively. Further, the “EC50, CreLuc assay, 100% hP” value in experiment [1] was 53.4 nM; with human GIP receptor, 0.82 nM; with human GLP-1 receptor it was 4.17 nM.
In the case of Y[Aib]EGTFTSDYSI[Aib]LEKQAE[Aib]AFVQWLIKGGPSEPASLRHYYNWLTRQRY-NH2 (not fully specified (residue 28); also: TFA salt) [Compound 54], the “EC50, CreLuc assay, 0.5% hP” value turned out to be 14 nM in experiment [1], 0.24 nM with human GIP receptor and 0.22 nM with human GLP-1 receptor. The “EC50, CreLuc assay, 100% hP” value in experiment [1] is 60.1 nM; with human GIP receptor, 1.4 nM; with human GLP-1 receptor, 7.71 nM.

B1: Compound 49 (peptide)
peptide: YXEGTFTSDYSIXLEKQAQXAFVEWLIKGGPSSGESXRHYYNWLTRQRY
modifications: Aib at 2, 13, 20, 37; K28 side chain: C20DA-gGlu-gGlu-gGlu-gGlu-gGlu-gGlu-eLys; C-terminal NH2
Regarding B1, the “EC50, CreLuc assay, 0.5% hP” value in experiment [1] was determined as 12.5 nM; with human GIP receptor it was 0.07 nM; with human GLP-1 receptor, 0.12 nM. In addition, the “EC50, CreLuc assay, 100% hP” value in experiment [1] is 36.8 nM; in the experiment with human GIP receptor it was 1.25 nM; in the experiment with human GLP-1 receptor it was 2.08 nM.

B2: Compound 62 (peptide)
peptide: YXEGTFTSDYSIXLEKQAQXAFVEWLIKGGPRYYASLRHYYNWLTRQRY
modifications: Aib at 2, 13, 20; K28 side chain: C20DA-gGlu-gGlu-gGlu-gGlu-gGlu-gGlu-eLys; C-terminal NH2
As for B2, the “EC50, CreLuc assay, 0.5% hP” value came out at 13.6 nM in experiment [1], 0.48 nM in the experiment with human GIP receptor and 0.78 nM with human GLP-1 receptor. Also, the “EC50, CreLuc assay, 100% hP” value was 40.5 nM in experiment [1], 5.35 nM with human GIP receptor and 9.23 nM with human GLP-1 receptor.

B3: Compound 53 (peptide)
peptide: YXEGTFTSDYSIXLEKQAQXAFVQWLIKGGPESGASLRHYYNWLTRQRY
modifications: Aib at 2, 13, 20; K28 side chain: C18DA-gGlu-gGlu-gGlu-gGlu-gGlu; C-terminal NH2
Regarding B3, the entries for the “EC50, CreLuc assay, 0.5% hP” value (in experiment [1]; with human GIP receptor; with human GLP-1 receptor) were 13.2 nM, 0.13 nM and 0.09 nM, respectively. Further, the “EC50, CreLuc assay, 100% hP” value is 50.6 nM in experiment [1], 1.38 nM with human GIP receptor and 3.46 nM with human GLP-1 receptor.

B4: Compound 50 (peptide)
peptide: YXEGTFTSDYSIXLEKQAQXAFVEWLIKGGPSSYESLRHYYNWLTRQRY
modifications: Aib at 2, 13, 20; K28 side chain: C20DA-gGlu-gGlu-gGlu-gGlu-gGlu-gGlu-eLys; C-terminal NH2
Take B4: the “EC50, CreLuc assay, 0.5% hP” value in experiment [1] stood at 11.8 nM; in the experiment with human GIP receptor, 0.12 nM; with human GLP-1 receptor it was 0.13 nM. For the same molecule, the “EC50, CreLuc assay, 100% hP” value in experiment [1] was 52.5 nM; with human GIP receptor, 1.47 nM; with human GLP-1 receptor it was 3.75 nM.

B5: Compound 51 (peptide)
peptide: YXEGTFTSDYSIXLEKQAEXAFVQWLIKGGPSSGASLRHYYNWLTRQRY
modifications: Aib at 2, 13, 20; K28 side chain: C18DA-gGlu-gGlu-gGlu-gGlu-gGlu-gGlu-eLys; C-terminal NH2
Consider B5, for which the “EC50, CreLuc assay, 0.5% hP” value in experiment [1] is 13.8 nM; with human GIP receptor, 0.23 nM; with human GLP-1 receptor it was 0.15 nM. In addition, the “EC50, CreLuc assay, 100% hP” value in experiment [1] was found to be 42.2 nM; in the experiment with human GIP receptor, 1.37 nM; in the experiment with human GLP-1 receptor, 4.66 nM.
Consider Y[Aib]EGTFTSDYSI[Aib]LEKQAQ[Aib]AFVQWLIK([AEEA-AEEA-γGlu-γGlu-γGlu-γGlu-C18 diacid])GGPESGASLRHYYNWLTRQRY-NH2 (also: TFA salt) [Compound 58], for which the “EC50, CreLuc assay, 0.5% hP” value in experiment [1] was found to be 10.2 nM; with human GIP receptor, 0.24 nM; in the experiment with human GLP-1 receptor, 0.05 nM. Further, the “EC50, CreLuc assay, 100% hP” value in experiment [1] stood at 22.8 nM; with human GIP receptor, 0.31 nM; in the experiment with human GLP-1 receptor, 2 nM.
Regarding Y[Aib]EGTFTSDYSI[Aib]LEKQAQ[Aib]AFVQWLIK([εLys-Glu-Glu-Glu-Glu-Glu-C18 diacid])GGPESGASLRHYYNWLTRQRY-NH2 (also: TFA salt) [Compound 63], the “EC50, CreLuc assay, 0.5% hP” value in experiment [1] came to 15.2 nM; in the experiment with human GIP receptor, 0.13 nM; with human GLP-1 receptor it was 0.08 nM. For the same molecule, the “EC50, CreLuc assay, 100% hP” value in experiment [1] is 74.3 nM; with human GIP receptor, 0.89 nM; with human GLP-1 receptor, 3 nM.
As to Y[Aib]EGTFTSDYSI[Aib]LEKQAQ[Aib]AFVQWLIK([AEEA-AEEA-Glu-Glu-Glu-Glu-C18 diacid])GGPESGASLRHYYNWLTRQRY-NH2 (also: TFA salt) [Compound 52], the figures for the “EC50, CreLuc assay, 0.5% hP” value (in experiment [1]; in the experiment with human GIP receptor; with human GLP-1 receptor) were 18.7 nM, 0.12 nM and 0.09 nM, respectively. For the same molecule, the “EC50, CreLuc assay, 100% hP” value in experiment [1] worked out at 93.5 nM; with human GIP receptor, 0.65 nM; with human GLP-1 receptor, 3.17 nM.
As for Y[Aib]EGTFTSDYSI[Aib]LEEEAQ[Aib]AFVQWLIK([εLys-εLys-γGlu-γGlu-γGlu-γGlu-γGlu-C20 diacid])GGPSSGASLRHYYNWLTRQRY-NH2 (also: TFA salt) [Compound 7], the “EC50, CreLuc assay, 0.5% hP” value in experiment [1] came to 16.9 nM; with human GIP receptor, 0.23 nM; in the experiment with human GLP-1 receptor it was 0.13 nM. In addition, the results for the “EC50, CreLuc assay, 100% hP” value (in experiment [1]; in the experiment with human GIP receptor; in the experiment with human GLP-1 receptor) were 36.7 nM, 0.63 nM and 1.58 nM, respectively.
On to Y[Aib]EGTFTSDYSI[Aib]LEKQAQ[Aib]AFVQWLIK([AEEA-AEEA-γGlu-γGlu-γGlu-γGlu-C18 diacid])GGPEEPASLRHYYNWLTRQRY-NH2 (also: TFA salt) [Compound 57], for which the entries for the “EC50, CreLuc assay, 0.5% hP” value (in experiment [1]; in the experiment with human GIP receptor; with human GLP-1 receptor) were 9.74 nM, 0.18 nM and 0.14 nM, respectively. Moreover, the “EC50, CreLuc assay, 100% hP” value came to 33.6 nM in experiment [1], 1.17 nM with human GIP receptor and 6.45 nM with human GLP-1 receptor.
With Y[Aib]EGTFTSDYSI[Aib]LEKQAQ[Aib]AFVQWLIKGGPSYYASLRHYYNWLTRQRY-NH2 (not fully specified (residue 28); also: TFA salt) [Compound 59], the figures for the “EC50, CreLuc assay, 0.5% hP” value (in experiment [1]; in the experiment with human GIP receptor; with human GLP-1 receptor) were 10.8 nM, 0.49 nM and 0.39 nM, respectively. In addition, the “EC50, CreLuc assay, 100% hP” value in experiment [1] came out at 29.9 nM; in the experiment with human GIP receptor, 5.75 nM; with human GLP-1 receptor it was 8.81 nM.
Regarding Y[Aib]EGTFTSDYSI[Aib]LEKQAQ[Aib]EFVEWLIK([AEEA-AEEA-γGlu-γGlu-γGlu-γGlu-C18 diacid])GGPSSPASLRHYYNWLTRQRY-NH2 (also: TFA salt) [Compound 56], the results for the “EC50, CreLuc assay, 0.5% hP” value (in experiment [1]; with human GIP receptor; with human GLP-1 receptor) were 27.2 nM, 0.27 nM and 0.25 nM, respectively. Moreover, the entries for the “EC50, CreLuc assay, 100% hP” value (in experiment [1]; with human GIP receptor; with human GLP-1 receptor) were 48.8 nM, 1.02 nM and 8.97 nM, respectively.
